Substitutions are numbered along the chain they refer to.
T1: human LAMA4 G domain (LG1-5) displayed on 293 cells (human, UniProt Q16363 830-1821)
T1 construct: the vector's tags and membrane anchor are not written here; also called LAMA4-displaying human 293 cells; full length
T1 sequence: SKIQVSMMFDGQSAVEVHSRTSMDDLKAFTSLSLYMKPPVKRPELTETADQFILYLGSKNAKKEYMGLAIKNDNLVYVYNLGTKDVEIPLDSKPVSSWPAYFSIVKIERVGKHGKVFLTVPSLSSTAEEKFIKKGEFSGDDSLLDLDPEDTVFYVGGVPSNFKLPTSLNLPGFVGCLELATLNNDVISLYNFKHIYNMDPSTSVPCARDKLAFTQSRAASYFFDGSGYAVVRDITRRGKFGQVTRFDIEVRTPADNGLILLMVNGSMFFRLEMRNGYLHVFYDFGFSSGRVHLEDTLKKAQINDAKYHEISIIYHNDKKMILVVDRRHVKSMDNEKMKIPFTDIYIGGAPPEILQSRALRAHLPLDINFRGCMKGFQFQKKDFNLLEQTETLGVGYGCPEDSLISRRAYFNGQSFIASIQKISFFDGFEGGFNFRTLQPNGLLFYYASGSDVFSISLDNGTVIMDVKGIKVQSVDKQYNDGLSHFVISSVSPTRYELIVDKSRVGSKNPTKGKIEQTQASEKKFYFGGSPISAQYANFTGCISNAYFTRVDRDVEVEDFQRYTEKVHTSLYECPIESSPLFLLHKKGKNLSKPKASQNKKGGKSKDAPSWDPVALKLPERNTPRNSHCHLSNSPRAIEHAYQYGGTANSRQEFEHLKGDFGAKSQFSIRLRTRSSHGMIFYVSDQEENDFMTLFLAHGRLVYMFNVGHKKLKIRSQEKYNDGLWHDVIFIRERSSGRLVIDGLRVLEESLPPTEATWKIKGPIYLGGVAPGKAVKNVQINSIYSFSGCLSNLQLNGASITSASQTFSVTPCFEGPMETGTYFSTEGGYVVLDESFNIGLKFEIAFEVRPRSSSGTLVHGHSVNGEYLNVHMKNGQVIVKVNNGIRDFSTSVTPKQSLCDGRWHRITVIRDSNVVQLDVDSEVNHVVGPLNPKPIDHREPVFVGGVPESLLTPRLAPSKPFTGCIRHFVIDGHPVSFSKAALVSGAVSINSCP

T2: human LAMA4 LG4-5 modules displayed on 293 cells (human, UniProt Q16363 1453-1821)
T2 construct: pDisplay construct on 293 cells; vector tags and anchor not written here
T2 sequence: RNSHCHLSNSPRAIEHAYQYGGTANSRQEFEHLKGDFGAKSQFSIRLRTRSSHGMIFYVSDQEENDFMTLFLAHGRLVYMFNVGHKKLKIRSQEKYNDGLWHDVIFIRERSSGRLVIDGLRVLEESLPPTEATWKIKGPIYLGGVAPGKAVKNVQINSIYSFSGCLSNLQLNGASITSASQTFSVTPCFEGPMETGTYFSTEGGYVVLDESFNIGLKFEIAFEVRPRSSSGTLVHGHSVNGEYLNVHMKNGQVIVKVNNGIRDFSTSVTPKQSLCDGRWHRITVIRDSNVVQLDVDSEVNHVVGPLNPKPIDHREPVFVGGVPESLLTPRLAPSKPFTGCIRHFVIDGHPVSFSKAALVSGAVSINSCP

T3: human LAMA4 LG1-3 modules displayed on 293 cells (human, UniProt Q16363 830-1430)
T3 construct: pDisplay construct on 293 cells; vector tags and anchor not written here
T3 sequence: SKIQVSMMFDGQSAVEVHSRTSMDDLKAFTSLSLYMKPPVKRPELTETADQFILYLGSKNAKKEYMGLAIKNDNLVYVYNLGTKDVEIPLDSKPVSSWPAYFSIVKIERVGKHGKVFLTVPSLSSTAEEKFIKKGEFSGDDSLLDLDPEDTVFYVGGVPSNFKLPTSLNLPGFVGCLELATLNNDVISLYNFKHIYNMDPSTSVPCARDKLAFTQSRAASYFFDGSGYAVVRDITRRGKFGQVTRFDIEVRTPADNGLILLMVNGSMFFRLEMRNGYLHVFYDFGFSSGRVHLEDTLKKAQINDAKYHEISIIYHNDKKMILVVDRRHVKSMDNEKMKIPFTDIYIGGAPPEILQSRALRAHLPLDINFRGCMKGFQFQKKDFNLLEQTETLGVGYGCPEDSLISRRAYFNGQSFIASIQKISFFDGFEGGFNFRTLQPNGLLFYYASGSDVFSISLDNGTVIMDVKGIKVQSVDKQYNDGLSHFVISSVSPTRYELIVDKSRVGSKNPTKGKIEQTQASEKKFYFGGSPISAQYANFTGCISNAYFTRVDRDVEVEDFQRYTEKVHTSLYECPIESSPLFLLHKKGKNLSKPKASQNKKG

T4: mouse His-laminin-α4 (mouse, UniProt P97927 826-1816, limits assumed)
T4 construct: Bought His-tagged recombinant protein; also called Murine LAMA4; recombinant mouse LAMA4-His
T4 sequence (looked up): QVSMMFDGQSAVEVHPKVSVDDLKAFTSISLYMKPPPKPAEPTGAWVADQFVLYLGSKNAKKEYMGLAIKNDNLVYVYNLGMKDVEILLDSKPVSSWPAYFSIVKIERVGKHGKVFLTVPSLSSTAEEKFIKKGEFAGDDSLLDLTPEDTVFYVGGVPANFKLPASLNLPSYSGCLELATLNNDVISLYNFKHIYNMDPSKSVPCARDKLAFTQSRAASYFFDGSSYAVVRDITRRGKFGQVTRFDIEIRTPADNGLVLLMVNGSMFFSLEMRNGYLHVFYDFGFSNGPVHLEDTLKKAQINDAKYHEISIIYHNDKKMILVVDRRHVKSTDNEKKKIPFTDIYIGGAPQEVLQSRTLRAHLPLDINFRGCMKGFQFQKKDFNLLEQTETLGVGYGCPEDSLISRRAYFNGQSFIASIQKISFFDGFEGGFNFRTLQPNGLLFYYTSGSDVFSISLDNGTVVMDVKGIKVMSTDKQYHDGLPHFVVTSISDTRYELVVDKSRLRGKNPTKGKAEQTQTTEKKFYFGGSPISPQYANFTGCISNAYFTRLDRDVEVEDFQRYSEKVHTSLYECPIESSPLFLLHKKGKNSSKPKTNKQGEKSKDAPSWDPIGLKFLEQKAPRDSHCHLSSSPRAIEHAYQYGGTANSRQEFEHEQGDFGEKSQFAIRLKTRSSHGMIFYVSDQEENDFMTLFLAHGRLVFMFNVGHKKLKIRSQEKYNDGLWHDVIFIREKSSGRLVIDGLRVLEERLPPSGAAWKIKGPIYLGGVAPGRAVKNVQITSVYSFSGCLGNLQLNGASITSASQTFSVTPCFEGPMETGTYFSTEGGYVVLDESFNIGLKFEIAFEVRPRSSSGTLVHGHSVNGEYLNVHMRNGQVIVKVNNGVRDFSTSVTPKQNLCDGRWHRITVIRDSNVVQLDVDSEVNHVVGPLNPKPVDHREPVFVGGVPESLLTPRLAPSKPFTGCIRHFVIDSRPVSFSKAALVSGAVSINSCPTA

T5: human His-laminin-α4 (human, UniProt Q16363 833-1823, limits assumed)
T5 construct: Bought His-tagged recombinant protein (R & D Systems); also called Human LAMA4; human His-laminin-α4 (R & D Systems)
T5 sequence: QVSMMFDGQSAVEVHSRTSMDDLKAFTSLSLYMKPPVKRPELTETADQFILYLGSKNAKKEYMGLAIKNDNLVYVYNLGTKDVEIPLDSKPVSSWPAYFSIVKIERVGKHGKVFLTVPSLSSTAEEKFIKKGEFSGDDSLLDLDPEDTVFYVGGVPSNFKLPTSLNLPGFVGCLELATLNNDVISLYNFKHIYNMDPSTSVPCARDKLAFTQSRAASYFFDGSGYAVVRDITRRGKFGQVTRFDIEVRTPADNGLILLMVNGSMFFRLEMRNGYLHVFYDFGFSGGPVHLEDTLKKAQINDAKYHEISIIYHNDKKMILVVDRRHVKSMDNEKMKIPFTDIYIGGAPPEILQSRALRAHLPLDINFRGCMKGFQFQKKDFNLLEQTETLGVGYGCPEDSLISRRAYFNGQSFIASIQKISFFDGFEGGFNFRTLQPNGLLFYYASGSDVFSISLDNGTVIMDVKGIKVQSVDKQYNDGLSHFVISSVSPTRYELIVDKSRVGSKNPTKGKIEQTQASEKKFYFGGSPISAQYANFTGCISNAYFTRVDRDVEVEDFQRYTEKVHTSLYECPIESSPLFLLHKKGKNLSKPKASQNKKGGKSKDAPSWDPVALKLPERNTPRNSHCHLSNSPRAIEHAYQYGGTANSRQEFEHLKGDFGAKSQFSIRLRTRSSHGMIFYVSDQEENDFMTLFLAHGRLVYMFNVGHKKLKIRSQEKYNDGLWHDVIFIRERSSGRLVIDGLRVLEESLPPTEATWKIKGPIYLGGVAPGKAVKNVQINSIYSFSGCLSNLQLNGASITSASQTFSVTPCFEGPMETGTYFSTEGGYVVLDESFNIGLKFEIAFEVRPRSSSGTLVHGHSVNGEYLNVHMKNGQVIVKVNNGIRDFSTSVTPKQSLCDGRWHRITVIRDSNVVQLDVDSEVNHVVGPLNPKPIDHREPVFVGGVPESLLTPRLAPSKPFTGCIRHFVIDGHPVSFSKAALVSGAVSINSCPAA

B1: 19C12 variant H1+ChiL (antibody, V domains shown)
VH: QVQLQQSGAELVKPGASVKISCKASGYAFSTYWMNWVKQAPGEGLEWIGQIYPGDGDTNYNGKFKGRVTLTADKSTSTAYMELSSLRSEDTAVYFCARSDGYYDYWGQGTTVTVSS
VL: NIVLTQSPASLAVSLGQRATISCRASESVDSYGTSFMHWYQQKPGQPPKLLICLASSLESGVPARFSGSGSRTDFTLTIDPVEADDAATYYCQQNNEDPPTFGAGTKLELKR
notes: Humanized heavy chain version 1 (Hu19C12VHv1) paired with the chimeric light chain; Human constant regions not specified
B2: 19C12 variant H2+ChiL (antibody, V domains shown)
VH: B1 VH with I20V, K38R, E43Q, L70I
VL: B1 VL
notes: Humanized heavy chain version 2 (Hu19C12VHv2) paired with the chimeric light chain; Human constant regions not specified
B3: mouse monoclonal antibody 5A12 (antibody, V domains shown)
VH: QVQLQQPGAELVKPGASVKLSCKASGYTFTSYWMHWVKQRPGRGLEWIGRIDPNSGGTKHNEKFKSKATLTVDKPSSTAYMQLSSLTSEDSAVYYCAGSPSYYDYALHYAMDYWGQGTSVTVSS
VL: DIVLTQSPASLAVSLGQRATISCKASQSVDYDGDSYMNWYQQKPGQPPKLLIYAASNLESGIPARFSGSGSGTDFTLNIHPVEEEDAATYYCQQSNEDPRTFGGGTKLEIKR
notes: version 1 is written here; also called 5Al2

Legend:
[1] = target: T1, human LAMA4 G domain (LG1-5) displayed …; assay: flow cytometry on 293 cells displaying LAMA4 G-domain variants, anti-human-650 secondary antibody; MFI
Protocol: (§1) The 19C12 variants chimeric 19C12, H1+chiL, and H2+chiL, and buffer alone were tested for their ability to block the binding of LAMA4 to its ligand MCAM (as shown in FIG. 11) and to bind LAMA4-displaying cells (full length, LG1-3, LG4-5, or untransfected control) (as shown in FIG. 12). […] To test LAMA4 binding capacity, serially diluted antibodies were pre-incubated with LAMA4-displaying human 293 cells, followed by anti-human-650 secondary antibody incubation. Fluorescent signal was assessed via flow cytometric analyses and plotted as mean fluorescence intensity (MFI).

[2] = target: T2, human LAMA4 LG4-5 modules displayed on …; assay: as above
Protocol: as §1

[3] = target: T3, human LAMA4 LG1-3 modules displayed on …; assay: as above
Protocol: as §1

[4] = target: T6, recombinant laminin 411 (human, UniProt P07942 22-1786; P11047 34-1609, limits assumed); assay: flow cytometric blocking assay; antibody pre-incubated with 650-labeled laminin 411; blocked partner: human MCAM on CHO cells; MFI
T6 construct: also called LAMA4 in complex with its gamma1 and beta1 chains
Protocol: as §1
(§2) Following two washes with FACS buffer (1% FBS in PBS), cells were resuspended with 650-conjugated anti-pan-laminin antibody (1:1000; Novus Biologicals) and incubated for 20 min at 4° C., and washed again. Cells were analyzed for pan-laminin reactivity by flow cytometry using standard procedures.

[5] = target: T1, human LAMA4 G domain (LG1-5) displayed …; assay: LAMA4 pDisplay flow cytometric blocking assay on LAMA4-displaying 293 cells; blocked ligand: 650-conjugated mouse MCAM-Fc
[6] = target: T6, recombinant laminin 411; assay: hMCAM.CHO flow cytometric blocking assay; antibody pre-incubated with laminin 411; blocked partner: human MCAM on CHO cells
Protocol: The monoclonal antibodies against LAMA4 were tested for their ability to block the binding of LAMA4 to its ligand MCAM. IgG control antibody, 1C1, 5Al2, 5B5, 19C12, and 12D3 were pre-incubated with recombinant LAMA4 protein, LAMA4-positive healthy mouse brain tissue, or LAMA4-displaying human 293 cells. […] For the mouse brain tissue blocking assay, antibodies were used at concentrations of 2.5 ug/ml or 0.04 ug/ml.
as §2
Target sequence in this assay (P07942 22-1786 limits assumed, chain 2 of 2): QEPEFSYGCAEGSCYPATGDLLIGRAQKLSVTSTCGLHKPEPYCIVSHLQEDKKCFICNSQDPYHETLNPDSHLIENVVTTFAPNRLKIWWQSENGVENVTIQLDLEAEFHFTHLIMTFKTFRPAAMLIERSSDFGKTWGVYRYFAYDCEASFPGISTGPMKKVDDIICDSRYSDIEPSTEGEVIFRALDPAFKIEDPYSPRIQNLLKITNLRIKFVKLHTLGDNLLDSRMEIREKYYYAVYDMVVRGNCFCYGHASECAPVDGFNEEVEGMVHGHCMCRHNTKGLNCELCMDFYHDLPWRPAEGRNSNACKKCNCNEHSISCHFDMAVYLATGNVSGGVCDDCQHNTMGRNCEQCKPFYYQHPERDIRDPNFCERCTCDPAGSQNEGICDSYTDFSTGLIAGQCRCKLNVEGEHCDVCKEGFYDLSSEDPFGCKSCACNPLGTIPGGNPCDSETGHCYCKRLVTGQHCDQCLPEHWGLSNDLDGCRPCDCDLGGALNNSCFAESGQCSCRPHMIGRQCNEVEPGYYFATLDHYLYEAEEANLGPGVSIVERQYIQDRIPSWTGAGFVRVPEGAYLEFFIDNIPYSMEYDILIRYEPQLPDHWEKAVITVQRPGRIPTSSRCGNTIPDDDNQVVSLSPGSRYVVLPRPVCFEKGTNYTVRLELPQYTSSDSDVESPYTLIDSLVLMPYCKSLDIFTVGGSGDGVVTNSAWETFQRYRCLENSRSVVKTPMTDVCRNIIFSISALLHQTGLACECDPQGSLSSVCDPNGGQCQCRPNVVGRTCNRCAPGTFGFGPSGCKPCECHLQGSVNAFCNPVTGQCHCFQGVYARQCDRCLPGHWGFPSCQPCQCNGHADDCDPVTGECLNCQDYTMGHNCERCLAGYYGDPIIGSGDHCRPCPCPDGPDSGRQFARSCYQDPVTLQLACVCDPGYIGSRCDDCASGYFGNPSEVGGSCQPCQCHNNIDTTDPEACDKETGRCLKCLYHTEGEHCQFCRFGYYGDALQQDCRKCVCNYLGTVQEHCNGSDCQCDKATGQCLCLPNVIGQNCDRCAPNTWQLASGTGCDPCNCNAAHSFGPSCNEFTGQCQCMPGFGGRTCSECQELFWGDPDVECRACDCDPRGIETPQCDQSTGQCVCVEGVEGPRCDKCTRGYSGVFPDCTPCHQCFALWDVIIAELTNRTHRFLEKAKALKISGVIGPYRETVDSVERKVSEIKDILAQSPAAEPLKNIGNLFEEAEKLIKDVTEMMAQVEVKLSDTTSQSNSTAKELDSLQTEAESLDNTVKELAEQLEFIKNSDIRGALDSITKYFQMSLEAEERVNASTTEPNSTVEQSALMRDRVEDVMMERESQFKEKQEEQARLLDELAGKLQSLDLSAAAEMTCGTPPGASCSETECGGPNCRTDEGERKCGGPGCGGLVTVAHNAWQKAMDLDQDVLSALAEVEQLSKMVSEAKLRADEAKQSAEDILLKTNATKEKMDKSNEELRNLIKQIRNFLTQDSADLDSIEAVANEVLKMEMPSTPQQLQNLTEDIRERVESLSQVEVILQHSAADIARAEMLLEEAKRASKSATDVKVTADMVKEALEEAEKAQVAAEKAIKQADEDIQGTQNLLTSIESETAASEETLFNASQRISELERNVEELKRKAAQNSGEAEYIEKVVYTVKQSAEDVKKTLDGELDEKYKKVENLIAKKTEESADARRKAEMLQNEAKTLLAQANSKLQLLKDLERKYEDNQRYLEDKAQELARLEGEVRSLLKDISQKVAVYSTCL
Target sequence in this assay (P11047 34-1609 limits assumed, chain 3 of 2): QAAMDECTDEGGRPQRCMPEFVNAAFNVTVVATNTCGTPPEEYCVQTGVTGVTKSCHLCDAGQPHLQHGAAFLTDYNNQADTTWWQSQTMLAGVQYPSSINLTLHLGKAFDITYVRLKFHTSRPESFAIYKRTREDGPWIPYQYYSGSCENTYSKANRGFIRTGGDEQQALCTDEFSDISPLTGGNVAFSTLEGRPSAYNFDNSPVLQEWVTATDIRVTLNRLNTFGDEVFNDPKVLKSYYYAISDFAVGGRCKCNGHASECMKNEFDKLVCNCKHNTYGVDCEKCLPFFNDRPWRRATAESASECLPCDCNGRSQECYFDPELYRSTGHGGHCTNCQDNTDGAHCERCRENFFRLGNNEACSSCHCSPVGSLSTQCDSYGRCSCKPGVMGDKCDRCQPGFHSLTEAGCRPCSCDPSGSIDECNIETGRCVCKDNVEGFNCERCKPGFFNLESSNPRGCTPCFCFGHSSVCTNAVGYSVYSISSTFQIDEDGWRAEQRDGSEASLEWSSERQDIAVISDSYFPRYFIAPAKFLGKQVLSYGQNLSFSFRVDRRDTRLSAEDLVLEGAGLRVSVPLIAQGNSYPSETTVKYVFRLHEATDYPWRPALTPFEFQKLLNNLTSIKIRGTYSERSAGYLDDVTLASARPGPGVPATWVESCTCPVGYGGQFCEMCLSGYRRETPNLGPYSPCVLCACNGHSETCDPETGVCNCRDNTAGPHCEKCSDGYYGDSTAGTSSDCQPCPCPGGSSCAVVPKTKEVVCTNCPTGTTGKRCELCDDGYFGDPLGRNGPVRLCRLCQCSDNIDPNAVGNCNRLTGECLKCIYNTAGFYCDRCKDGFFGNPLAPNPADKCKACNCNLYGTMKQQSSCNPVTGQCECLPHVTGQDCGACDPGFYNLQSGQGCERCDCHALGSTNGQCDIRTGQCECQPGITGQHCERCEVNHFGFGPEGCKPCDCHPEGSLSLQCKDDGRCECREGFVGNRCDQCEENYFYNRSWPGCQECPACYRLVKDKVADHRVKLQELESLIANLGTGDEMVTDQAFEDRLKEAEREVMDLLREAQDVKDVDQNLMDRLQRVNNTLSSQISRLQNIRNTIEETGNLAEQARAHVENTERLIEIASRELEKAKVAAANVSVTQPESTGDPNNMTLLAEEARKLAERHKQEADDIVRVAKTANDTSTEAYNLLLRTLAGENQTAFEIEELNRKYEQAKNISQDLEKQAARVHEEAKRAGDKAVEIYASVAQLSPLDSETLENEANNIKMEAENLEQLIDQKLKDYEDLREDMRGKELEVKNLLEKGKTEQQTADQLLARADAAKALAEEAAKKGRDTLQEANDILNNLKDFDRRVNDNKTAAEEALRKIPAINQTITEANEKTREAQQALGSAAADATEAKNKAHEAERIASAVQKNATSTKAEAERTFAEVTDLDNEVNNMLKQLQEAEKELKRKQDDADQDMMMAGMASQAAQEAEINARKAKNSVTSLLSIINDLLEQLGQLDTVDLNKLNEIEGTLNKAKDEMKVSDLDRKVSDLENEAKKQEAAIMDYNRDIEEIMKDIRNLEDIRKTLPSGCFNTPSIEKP

[7] = target: T4, mouse His-laminin-α4; assay: ELISA hMCAM-Fc capture blocking assay; antibody pre-incubated with mouse LAMA4-His; blocked partner: captured hMCAM-Fc
[8] = target: T5, human His-laminin-α4; assay: Biacore SPR
[9] = target: T4, mouse His-laminin-α4; assay: Biacore SPR

| Binder | binding result [1] | binding result [2] | binding result [3] | binding result [4] | IC50 (read off the curve) [5] [µg/mL] | IC50 (read off the curve) [6] [µg/mL] | IC50 (read off the curve) [7] [µg/mL] | Kd [8] [nM] | koff [8] [s⁻¹] | kon [8] [M⁻¹ s⁻¹] | Kd [9] [nM] | koff [9] [s⁻¹] | kon [9] [M⁻¹ s⁻¹] |
| --- | --- | --- | --- | --- | --- | --- | --- | --- | --- | --- | --- | --- | --- |
| B1 | binds | no binding (tested: 5 ug/ml) | binds | binds |  |  |  |  |  |  |  |  |  |
| B2 | binds | no binding (tested: 5 ug/ml) | binds | binds |  |  |  |  |  |  |  |  |  |
| B3 |  |  |  |  | ~0.1 | ~0.06 | ~0.2 | 10.9 | 0.00791 | 723000 | 10.3 | 0.00815 | 795000 |
